The series “crystal structure” deals with the molecule itself. The experiment in a line: crystal structure.
Series [1] concerns the molecule itself. The experiment in a line: SDS-PAGE of the folded channel.

B1: KcsA V76ester channel, truncated for crystallization (domain or fragment, UniProt P0A334 1-125, looked up)
chain: MPPMLSGLLARLVKLLLGRHGSALHWRAAGAATVLLVIVLLAGSYLAVLAERGAPGAQLITYPRALWWACETATTVGYGDLCPVTLWGRLVAVVVMVAGITSFGLVTAALATWFVGREQERRGHF
modifications: peptide bond between residues 75 and 76 (Thr75-Val76, the 4' amide bond) replaced with an ester linkage
Take B1: the binding result in “crystal structure” is “binds”.

B2: KcsA V76ester channel (semisynthetic, full length) (natural protein, UniProt P0A334 1-160, looked up)
chain: MPPMLSGLLARLVKLLLGRHGSALHWRAAGAATVLLVIVLLAGSYLAVLAERGAPGAQLITYPRALWWACETATTVGYGDLCPVTLWGRLVAVVVMVAGITSFGLVTAALATWFVGREQERRGHFVRHSEKAAEEAYTRTTRALHERFDRLERMLDDNRR
modifications: peptide bond between residues 75 and 76 (Thr75-Val76, the 4' amide bond) replaced with an ester linkage
In the case of B2, in series [1], the “stoichiometry N” value stood at 4.

In general, stoichiometry N refers to a count of units in the complex or per binding partner.

For the origin of these results see PMC4876015 (Structure (London, England : 1993), 2016).
